Measurements from US20240101677A1 (Innovent, published 2024).

Key:
[1] = biological target: T1, CD16A on human primary NK cells (human, UniProt P08637 17-254); test: flow cytometry (MFI, PE-anti-human Fc) on human primary NK cells, donor SLB190084
T1 construct: whole, on cells; also called primary natural killer (NK) cells
Experimental: (§1) Human PBMC cells were thawed (Sailybio, SLB190084 & SLB190071), and NK cells were enriched and isolated using a human NK cell enrichment kit (Stemcell, 19055) and centrifuged at 400 g for 5 min. The supernatant was removed, and the cells were resuspended in PBS. After counting, the cells were adjusted to a density of 2×10⁶ cells/mL, and the cell suspension was added to a U-bottom 96-well plate at 100 μL/well. Then, the test antibody was added to make a final concentration of 100 nM, and subjected to a 6-fold dilution to obtain 10 gradients. The mixture was left to stand on ice for a reaction for 1 h. The mixture was centrifuged at 300 g for 5 min, and the supernatant was removed. The cells were washed once with PBS. The mixture was centrifuged at 300 g for 5 min, and PBS was removed. 100 μL of PE-anti-human Fc antibody (Southern Biotech, 2040-09) diluted at a ratio of 1:200 was added to each well. The mixture was incubated on ice for 30 min in the dark. The mixture was centrifuged at 400 g for 5 min, and the supernatant was removed. The cells were washed twice with PBS, and then resuspended in 100 μL of PBS. A fluorescence shift assay was performed by using a flow cytometer (BD, Facscelesta). […] The control antibody used in FIGS. 2A and 2B was the same as that in Example 5.

[2] = biological target: T2, human CD16A (type 158V) on GS-CHO cells (human, UniProt P08637 17-254); test: flow cytometry (MFI, PE-anti-human Fc) on GS-CHO cells expressing human CD16A (type 158V)
T2 construct: whole, on cells; also called GS-CHO cells expressing human CD16A
T2 sequence (P08637 17-254 F176V): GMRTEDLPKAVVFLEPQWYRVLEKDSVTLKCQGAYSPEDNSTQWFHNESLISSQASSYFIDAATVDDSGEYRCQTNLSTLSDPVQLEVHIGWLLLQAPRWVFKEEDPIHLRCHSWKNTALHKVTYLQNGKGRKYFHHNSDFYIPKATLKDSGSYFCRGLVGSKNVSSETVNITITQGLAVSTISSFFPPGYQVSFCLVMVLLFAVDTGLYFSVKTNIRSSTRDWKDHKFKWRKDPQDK
Experimental: After counting, the cells were adjusted to a density of 2×10⁶ cells/mL, and the cell suspension was added to a U-bottom 96-well plate at 100 μL/well. […] The mixture was centrifuged at 300 g for 5 min, and the supernatant was removed. The cells were washed once with PBS. The mixture was centrifuged at 300 g for 5 min, and PBS was removed. 100 μL of PE-anti-human Fc antibody (Southern Biotech, 2040-09) diluted at a ratio of 1:200 was added to each well. The mixture was incubated on ice for 30 min in the dark. The mixture was centrifuged at 400 g for 5 min, and the supernatant was removed. The cells were washed twice with PBS, and then resuspended in 100 μL of PBS. A fluorescence shift assay was performed by using a flow cytometer (BD, Facscelesta).

[3] = biological target: T1, CD16A on human primary NK cells; test: flow cytometry (MFI, PE-A) on human primary NK cells, donor SLB190071
Experimental: as §1
In this example, the binding of anti-CD16A/HER2 and anti-CD16A/BCMA bispecific antibodies (subjected to gradient dilution) of the present invention to primary NK cells was assayed by flow cytometry. The assay method was the same as that in Example 6.

T1 sequence (P08637 17-254): as the sequence (P08637 17-254 F176V) above, with V160F counted along it

Binder | binding result [1] | binding result [2] | EC50 [3]
Isotype-IgG1-Fc-LALA (antibody, also called anti-Hen Egg Lysozyme (HEL) antibody; negative control) variable region (heavy or light not stated; listed first): EVRLLESGGGLVQPGGSLRLSCAASGFTFSNYAMGWVRQAPGKCLEWVSAISGSGGSTYYADSVKGRFTTSRDDSKNALYLQMNSLRAEDTAVYYCARGGPGWYAADVWGQGTTVTVSS variable region (heavy or light not stated; listed second): DIQMTQSPSSLSASVGDRVTITCRASQSISSYLNWYQQKPGKAPKLLIYAASSLQSGVPSRFSGSGSGTDFTLTISSLQPEDFATYYCQQADLPAFAFGCGTKVEIK | no binding (tested: log 2 (100 nM)) | no binding (tested: log 2.8 (about 600 nM)) | –
16A067 (bispecific antibody, human IgG1, kappa, L234A L235A, 1+1 knob-into-hole format, sdAb-Fc arm and Fab-Fc arm, LALA; also called anti-CD16A/BCMA bispecific antibody (Y88A3 x ADI384-56)) heavy 1: not shown heavy 2: EVQLVESGGGLVQPGRSLRLSCAASGFTFGDYAIHWVRQAPGKGLEWVSGISWDSSSIAYADSVKGRFTISRDNAKNSLYLQMNSLRAEDTAVYYCAKDSPVRDSFGSIAFDIWGQGTMVTVSSASTKGPSVFPLAPSSKSTSGGTAALGCLVKDYFPEPVTVSWNSGALTSGVHTFPAVLQSSGLYSLSSVVTVPSSSLGTQTYICNVNHKPSNTKVDKKVEPKSCDKTHTCPPCPAPEAAGGPSVFLFPPKPKDTLMISRTPEVTCVVVDVSHEDPEVKFNWYVDGVEVHNAKTKPREEQYNSTYRVVSVLTVLHQDWLNGKEYKCKVSNKALPAPIEKTISKAKGQPREPQVCTLPPSRDELTKNQVSLSCAVKGFYPSDIAVEWESNGQPENNYKTTPPVLDSDGSFFLVSKLTVDKSRWQQGNVFSCSVMHEALHNHYTQKSLSLSPGK light: not shown | – | – | 14.2 nM
16A068 (bispecific antibody, human IgG1, kappa, L234A L235A, 1+1 knob-into-hole format, sdAb-Fc arm and Fab-Fc arm, LALA; also called anti-CD16A/BCMA bispecific antibody (Y99F6 x ADI384-56)) heavy 1: not shown heavy 2: EVQLVESGGGLVQPGRSLRLSCAASGFTFGDYAIHWVRQAPGKGLEWVSGISWDSSSIAYADSVKGRFTISRDNAKNSLYLQMNSLRAEDTAVYYCAKDSPVRDSFGSIAFDIWGQGTMVTVSSASTKGPSVFPLAPSSKSTSGGTAALGCLVKDYFPEPVTVSWNSGALTSGVHTFPAVLQSSGLYSLSSVVTVPSSSLGTQTYICNVNHKPSNTKVDKKVEPKSCDKTHTCPPCPAPEAAGGPSVFLFPPKPKDTLMISRTPEVTCVVVDVSHEDPEVKFNWYVDGVEVHNAKTKPREEQYNSTYRVVSVLTVLHQDWLNGKEYKCKVSNKALPAPIEKTISKAKGQPREPQVCTLPPSRDELTKNQVSLSCAVKGFYPSDIAVEWESNGQPENNYKTTPPVLDSDGSFFLVSKLTVDKSRWQQGNVFSCSVMHEALHNHYTQKSLSLSPGK light: not shown | – | – | 50.5 nM
16A069 (bispecific antibody, human IgG1, kappa, L234A L235A, 1+1 knob-into-hole format, sdAb-Fc arm and Fab-Fc arm, LALA; also called anti-CD16A/BCMA bispecific antibody (Y100D6 x ADI384-56)) heavy 1: not shown heavy 2: EVQLVESGGGLVQPGRSLRLSCAASGFTFGDYAIHWVRQAPGKGLEWVSGISWDSSSIAYADSVKGRFTISRDNAKNSLYLQMNSLRAEDTAVYYCAKDSPVRDSFGSIAFDIWGQGTMVTVSSASTKGPSVFPLAPSSKSTSGGTAALGCLVKDYFPEPVTVSWNSGALTSGVHTFPAVLQSSGLYSLSSVVTVPSSSLGTQTYICNVNHKPSNTKVDKKVEPKSCDKTHTCPPCPAPEAAGGPSVFLFPPKPKDTLMISRTPEVTCVVVDVSHEDPEVKFNWYVDGVEVHNAKTKPREEQYNSTYRVVSVLTVLHQDWLNGKEYKCKVSNKALPAPIEKTISKAKGQPREPQVCTLPPSRDELTKNQVSLSCAVKGFYPSDIAVEWESNGQPENNYKTTPPVLDSDGSFFLVSKLTVDKSRWQQGNVFSCSVMHEALHNHYTQKSLSLSPGK light: not shown | – | – | 15.3 nM
16A070 (bispecific antibody, human IgG1, kappa, L234A L235A, 1+1 knob-into-hole format, sdAb-Fc arm and Fab-Fc arm, LALA; also called anti-CD16A/BCMA bispecific antibody (Y95H1 x ADI384-56)) heavy 1: not shown heavy 2: EVQLVESGGGLVQPGRSLRLSCAASGFTFGDYAIHWVRQAPGKGLEWVSGISWDSSSIAYADSVKGRFTISRDNAKNSLYLQMNSLRAEDTAVYYCAKDSPVRDSFGSIAFDIWGQGTMVTVSSASTKGPSVFPLAPSSKSTSGGTAALGCLVKDYFPEPVTVSWNSGALTSGVHTFPAVLQSSGLYSLSSVVTVPSSSLGTQTYICNVNHKPSNTKVDKKVEPKSCDKTHTCPPCPAPEAAGGPSVFLFPPKPKDTLMISRTPEVTCVVVDVSHEDPEVKFNWYVDGVEVHNAKTKPREEQYNSTYRVVSVLTVLHQDWLNGKEYKCKVSNKALPAPIEKTISKAKGQPREPQVCTLPPSRDELTKNQVSLSCAVKGFYPSDIAVEWESNGQPENNYKTTPPVLDSDGSFFLVSKLTVDKSRWQQGNVFSCSVMHEALHNHYTQKSLSLSPGK light: not shown | – | – | 7.96 nM
